Test: soluble on expression in E. coli; label from the status in PepcDB or PDB records

Sequence | soluble on expression in E. coli
MGSDKIHHHHHHMENGEMIKVLLANPRGFCAGVDRAIEIVERALSVHGAPIYVRHEVVHNRFVVEDLEKKGAVFVENLDEVPAGSILIFSAHGVSHAVRREAEAGQFKVFDATCPLVTKVHIEVAKMRDQGREIIMIGHAGHPEVEGTMGQAEGDGPSMYLVETEEDVEKLQVQDPAHLAYVTQTTLSVDDANRVIQALKGRFPNILGPKKDDICYATQNRQDAVKTMVKQCDLVIVVGSPNSSNSNRLCEVARNAGVDAYMLDRAEQLQEAWLKGKMRIGITAGASAPEVLVQEVISRLRQIVSEQAEREVVVEELRGVVESVVFPLPRN | not soluble
MFGISFSELLLVGLVALLVLGPERLPGAARTAGLWIGRLKRSFNTIKQEVEREIGADEIRRQLHNEHILSMEREAQKLLAPLTGQNPPQETPPPAAESPAPSVPTPPPTSTPAVPPADAAAPPAVAASTPPSPPSETPRNPLEHHHHHH | not soluble
MNTPRIPIASHQAVMRCLRDKLQQANLTLQTDYTEPAVSYQQRGATAGTAWLQHWEIRLNPVLLQENQQTFIDEVVPHELAHLLVYARFGRVAPHGKEWRWMMENVLHVPAKRTHRFAVQSVQGKTFTYLCDCQRHELTIRRHNRVLRGETEYRCRRCGKTLRHDVKSSILEHHHHHH | soluble
MTLTVAAPCVQTVTEPSKMEMQAESTSHITIRFTEMVGDAQKPTYGSISSAGADLYSAEDVVVPANGKLCVSTGLQIELPIGYYGRVAPRSGLAAKHFIDVGAGVIDSDYRGEVKVLLFNFNTTAFEVKTGDRIAKLICEQIGNGTYEEVKSLPSTNRGAGGFGSTGESTMNSETANPATNLERITVRFTQLNENAQTPTYGSEEAAGADLYSAEDITVPAHGKCCVSTGIQMELPFGYYGRVAPRSGLAAKHFIDVGAGVIDSDYRGEVKVLLFNFTDNAFEVKKGDRIAQLICEKIGHCVYEAASELENTDRGAGGFGSTGQNTMEAEPALKKSKTEQIKTSATSVTIQITKSNDNAQMPTYGSAEAAGADLYSAEDVTVPARGKLCVSTGIQMALPIGYYGRVAPRSGLAAKHFIDVGAGVIDSDYRGEVKVLLFNFGENDFEVKKGDRIAQLVCEQIALCTYSKVESLEVTERGAGGFGSTGQYITL | not soluble
STAREQPIFSTRAHVFQIDPATKRNWIPAGKHALTVSYFYDATRNVYRIISIGGAKAIINSTVTPNMTFTKTSQKFGQWADSRANTVYGLGFASEQHLTQFAEKFQEVKEAARLARE | soluble
MGSDKIHHHHHHDEEPSDKGSTSPQEPVYTTFTDAGEVVVPGVLPANFTPRSVRVKGDTLFVANTNAADRSVLLLNLTTGELIGRIDSWVRKGVKETFNAEIGDMAVSDRYIFVGMYNSRINIFDRRTLQFVNAIGRSDGKWGDDIYSMTHCYGLRECGERLMVRDKNTIRGYWIYEAVTEPAFRVPWIGKVKVPEGVGYDYQARIHGMAEYDGRMYLTDWYNKSVQVFTPSKMEIVFGEETHITSDAVFKYDDIQPLGLLAYGGELLMSVQKSGKIQRYDPETGDLLGVLAEFPGKEIGRMEIARGMLYYIDLKAGKLMKAKGE | not soluble
MSLANLKVNLYGMEFLNPIMTAAGPGAKDGALCQEAAKGGAGAICTKTISVLPADVPRPCMAKTNSGFLNTELWSELPKEQWIEEEYKKVKETGLPVIVSMGYSAEQIAEVAPLVKPYADAVELSTHYVGTDVAPIVNALKAAKAVLDVPVFMKMSPHTDIQTIAKAVEEAGADGLVMINSFGPCMAIDVNTGYPIMGSKAGYGWLSGAPIRPLAIRCIYEASQVVNIPIIGVGGITCGKDVAEMMMAGASAVQVCTEAILKGPSIYGKIAKELNEFLDENGEGHHHHHH | not soluble
MATFASRELTEEDDSHPGPSEKSEKDVLGIVRTGPKKLITGESSSLFKLKNELLKRKDRLNSEVHIKHTETHVSGKSNLLSTKKEEKERQARKDESRKLRIEKNERAVRREEDEARLMAAQQKLREKSELYDRMQEGNVVLANLDDTPVEFLVDFGTKKRRIEEERAWERERYREQEEAAPIGFGRAPIPEHYHHSEEQRVYGTSHMRLSLNENKRKEEIEKLLEMSKKTDMDKAKKKETEKHRDILRREKLNKLRAKHGLELLPEIVEPVAVPASQIDLNSIPLPGQKETPEERHARLMKSDREWDRGKGHYTTWIEKQRDERDDEFRPPDSYFR | soluble
MSLASVIADVPGMKTIVQVLTFRDYQYDDGWHQANIEVPAISGLEESGLGQALNQKYLEENKKLYEDFMADVEEMKALGDGHMGVDSGYEIKTDNERLLAIGRYVVNTVGSSSTVFKYDTIDKVDQVLITLPSLFKDDSYVQVISDYIVNEMKAKMKADSNLIYWVVTDENKDEVNYFEPFTQIKPEQSFYINSDYKLVISFDKYEVGPGVMGMQEFVIPTEVIADRLVSDEYVREGHHHHHH | soluble
MTAKMETTFYDDALNASFLPSESGPYGYSNPKILKQSMTLNLADPVGSLKPHLRAKNSDLLTSPDVGLLKLASPELERLIIQSSNGHITTTPTPTQFLCPKNVTDEQEGFAEGFVRALAELHSQNTLPSVTSAAQPVNGAGMVAPAVASVAGGSGSGGFSASLHSEPPVYANLSNFNPGALSSGGGAPSYGAAGLAFPAQPQQQQQPPHHLPQQMPVQHPRLQALKEEPQTVPEMPGETPPLSPIDMESQERIKAERKRMRNRIAASKCRKRKLERIARLEEKVKTLKAQNSELASTANMLREQVAQLKQKVMNHVNSGCQLMLTQQLQTF | soluble
TVAVSQIVEHPALDATRQGLLDGLKAKGYEEGKNLEFDYKTAQGNPAIAVQIARQYVGESPDVLVGIATPSAQALVSATRTIPVVFTAVTDPVGAKLVKSMKQPGKNVTGLSDLSPVAQHVELIQEILPQVKSIGVVFNPGEANAVTLVNLLKESAEAKGIKVVEATALKSADVQSATQAIAAKSDILYAPTDNTVASAIEGMIVAANQAKKPVFGGATSYVEKGAIAGLGFDYYQVGVQTADYVAAILDGQEPGKLDVKVATGSDLVINESAASKLGIQLPSSVVQRATSMQ | not soluble
MGSDKIHHHHHHMLNWLRTLLGRVRADPDTIPETLWQHTLAQYPFLAQRAAAEQSQLRTLAGQFLAGKEFSGAQGLVVTDEMAVAIAAQACLPVLHLGLDYYDDFKGIVVHPGAMLARREVMDDSGVVHRYSEVLLGEAMERGPVTLSWQDVAAAGESASQGYNVVVHEFIHKIDMRDGTANGCPPLPSRTAREAWQAVMQPAYDDFREQVAMAERFGGAPPWLDSYAATSPAEFFAVTCEAYFVNRPRFAQDFAALAGLFDEYFRRNRLSTQ | not soluble
MYRAWDPSLTTIDSFLVNELLLHAHPTKTPPEVTEGQTPSSSSSSSTDSGRETMLEEEEAACCDLDSELARIGDENTAEIRELCLPLEIDSRCNLCAIVSICLRRDPQQKWLLDYCFLCHKCAAAPRTAMATLIVATEFLHLMKLHFRDIAFDNIFKERIVTIFDFHAHFFINRCYTQRDEHPVMVENITLAHMAVTRALLTDDDAVPYTKRRKIQYKLPKKPAPAEPEELRLLDKYRRATEGSFARVLFYIWSGTNVMFNTTLTDLAIKKSKALKALKTRQSEIEPSVGPVFLSPIPTFRLRNATTTVCLLCELMACSYRDNVFLQQLRERITNYSRNNLKIIDRTQLTMAEILSHGRNSEFPQQLKNKDVSIYVTSSPETLAAASRPGTEEPFELSALTYLVLRQVGVIGVYKHLFADPLCAANMRSTDPNILFFDVPNEYLNEAKLAICSTNAYPSRVERDFWLYAHMFKAFQIIKRNFKTKTQLSDFLRDFSQVLESHDFSLVDPSFTVEKYV | not soluble
MAHHHHHHMRAQSDLSPSSVSELRSKLKGVRVEVGSLVSFRDEPAFEMVMRLNKRHNGNLVSAVLSKGNAACGLGGDASGSGEGIGEGRVMADRSRHVEELRMVFIPKAYGAFLEDEMQKWLDPFRGRGEANRTKRKRDEVDDNEVTDIDSDVDTDECDDADSFRSV | soluble
MIKLSSITAHILDIWHRRNSRSYIAHLRSLGIRIGDGCIFRDPLTTRIDVSRPALVSIGSNVDMNTYFQILTHDWASFVFRNKYHDFVNSSGRVEIGSNIYIGTNVIVLRGVTIGDNCVIGAGSVVTHDIPANSVAVGAPCRVVCSLEHHHHHH | soluble
AFINAHTHFEFSNNKASFDYGSFSGWLGSVLNNGGAILENCQGAIQNAISTQLKSGVGSVGAISNHLIEVNLLKESPLNAVVFLEFLGSSYSLEKLKAFEAKFKELKDLEDKKLKAALAVHAPYSVQKDMALSVIQLAKDSQSLLSTHFLESLEELEWVENSKGWFENFYQHFLKESHFKSLYKGANDYIDMFKDTHTLFVHNQFASLEALKRIKSQVKNAFLITCPFSNRLLSGQALDLERTKEAGLSVSVATDGLSSNISLSLLDELRAFLLTHNMPLLELAKIALLGATRHGAKALALNNG | not soluble
MGHHHHHHSHMVGWQEGANHKNGAGRSQKQEMAEKMVPEVASGEEIGGRSEAGRESPDLFRPNTVEARDRPAGPPFSKSASVRVLQRSRTNRDYIPIEHIQSPIGIYNML | not soluble
MSGSFELSVQDLNDLLSDGSGCYSLPSQPCNEVTPRIYVGNASVAQDIPKLQKLGITHVLNAAEGRSFMHVNTNANFYKDSGITYLGIKANDTQEFNLSAYFERAADFIDQALAQKNGRVLVHCREGYSRSPTLVIAYLMMRQKMDVKSALSIVRQNREIGPNDGFLAQLCQLNDRLAKEGKLKP | soluble
MVDGQPSLQQVLERVDEWMAKEGLLDPNVKSIFVTCGDWDLKVMLPGQCQYLGLPVADYFKQWINLKKAYSFAMGCWPKNGLLDMNKGLSLQHIGRPHSGIDDCKNIANIMKTLAYRGFIFKQTSKPF | not soluble
GPGSMPSGVTHSLSLSSLPVVSLLPRWHKAEVVSHRQLTPTATSAQERAKRGKTSVLAAANTAAMTATESKGFAELYHQLLQDGVQLQKELEAYYLRQEGYIRKRVAVLDEMQENIADERRCLELQHQECRAQISTTRKQAASFLSDERKVSQAVRHAQPFLAAQEAEIDKRLDELQREKEREDTALLNVMARQEALGKQEALLACRERQRFLEEQDLQKALIEMRSLNREMEERRKSLLRKHGTVADWDRKLESRERELLVCQDQLRENLKALEQEENALGIHPAQRTAVAPAVSQRTVMDDHDMSIEHDSACEEIDYED | not soluble
MGSDKIHHHHHHMTEVIRDIPFLATDRVEALLDIERHLIVEQSTIERWFRGQWQRTPPPFYASVDLRNAGFKLAPVDTNLFSAGFNNLNPEFSALYVSAIQHYLNQYHPGLERVLLIPENHTRNLFYLESVARLRELLELAGLDVRVGSLILEDRTVYDLPSGGQLLLEPLCRDDGRLSTRGFDAQLILLNNDLSGGVPEILAGLEQPILPPLAAGWRNRRKSQHFTHYRAVAQELAEVIGIDPWLIDPVFRRCQGIDFMRSEGRECLVANVDAVLEITRERYAHYGIHQRPFVIVKADAGTYGMGIMTAYSGEEFLDLNRKERTRMAKSKEGLPVSDVFIQEGVYTFEQTAQEAVAEPVVYMIGQQVLGGFYRVHTERGRDENLNAPGAHFEPMAFGQTCVLPCRKSPPDAPANRYYAYGVIARLTLVAAAREMADWRRQGTLETGQ | not soluble
SDLQAAGAQAQGAAEPSRGPPLPSARGAPPSPEAGFATADHSGQERETEKAMDRLARGTQSIPNDSPARGEGTHSEEEGFAMDEEDSDGELNTWELSEGTNCPPKEQPGDLFNEDWDSELKADQGNPYDADDIQESISQELKPWVCCAPQGDMIYDPSWHHPPPLIPYYSKMVFETGQFDDAED | soluble

Reference: the DeepSol protein solubility set
